The text below walks through data of patent US20240239860A1 (University of Pennsylvania, published 2024).

In the test the target is T1, dipeptidyl peptidase 4 (DPP-4) (UniProt P27487 39-766, limits assumed).
T1 construct: also called adenosine deaminase complexing protein 2; CD26
Nature of the test: inhibition of DPP-4 cleavage of the chromogenic substrate Gly-Pro-pNA.

T1 sequence (P27487 39-766 limits assumed): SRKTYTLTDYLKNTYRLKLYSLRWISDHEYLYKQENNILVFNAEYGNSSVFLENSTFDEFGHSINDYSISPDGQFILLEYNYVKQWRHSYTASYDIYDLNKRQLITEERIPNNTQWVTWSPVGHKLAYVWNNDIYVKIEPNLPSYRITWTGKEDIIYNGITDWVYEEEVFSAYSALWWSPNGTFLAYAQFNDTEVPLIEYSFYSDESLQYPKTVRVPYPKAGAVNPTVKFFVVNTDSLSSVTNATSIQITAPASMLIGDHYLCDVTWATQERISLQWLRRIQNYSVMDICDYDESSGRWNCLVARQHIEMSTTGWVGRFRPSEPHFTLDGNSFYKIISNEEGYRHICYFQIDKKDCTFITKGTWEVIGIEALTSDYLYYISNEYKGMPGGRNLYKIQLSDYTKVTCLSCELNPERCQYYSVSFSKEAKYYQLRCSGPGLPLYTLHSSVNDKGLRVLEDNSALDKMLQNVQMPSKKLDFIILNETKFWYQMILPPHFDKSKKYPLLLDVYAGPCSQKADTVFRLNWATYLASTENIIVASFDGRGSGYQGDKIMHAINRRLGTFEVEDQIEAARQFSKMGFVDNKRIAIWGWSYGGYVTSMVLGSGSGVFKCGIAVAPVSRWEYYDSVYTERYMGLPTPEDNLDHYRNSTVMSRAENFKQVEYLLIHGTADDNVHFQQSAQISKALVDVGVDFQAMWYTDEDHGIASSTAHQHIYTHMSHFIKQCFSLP

B1: thio GLP-1 (GLP-1 7-36 with a thioamide at the Ala8-Glu9 scissile bond) (peptide)
peptide: HXEGTFTSDVSSYLEGQAAKEFIAWLVKGR
modifications: thioamide (C=S in place of C=O) at Ala8 (second residue of the peptide), i.e. the bond between Ala8 and Glu9; printed HA*EGTF...
notes: C-terminal amide is called optional; also called GLP-1-A^s8; thioamide-modified GLP-1
Regarding B1, the binding result is recorded as “no binding (tested: 100 µM)”.
